According to paper PMC9834408 (Nature Communications, 2023):
Where no end group is shown, it is not given here. [ ]: non-standard residue; d: D form. FAM = FAM fluorescent label on the peptide N-terminus (the text does not expand the abbreviation); pS = N[C@@H](COP(=O)(O)O)C(=O)O

T1: RBM15 SPOC R834A (human, UniProt Q96T37 775-960, R834A)
T1 construct: SPOC domain of human RBM15, residues 775-960, with R834A; not shown: His6, N-terminal, cleaved
T1 sequence (looked up): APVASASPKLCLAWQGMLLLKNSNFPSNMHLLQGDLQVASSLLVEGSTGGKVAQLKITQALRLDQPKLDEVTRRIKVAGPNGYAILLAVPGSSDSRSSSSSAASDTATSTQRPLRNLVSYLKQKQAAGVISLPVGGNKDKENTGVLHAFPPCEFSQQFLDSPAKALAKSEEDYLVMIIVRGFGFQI


Columns and labels:
[1] = target: T2, SHARP SPOC (3496–3664 aa) (human, UniProt Q96T58 3496-3664); assay: fluorescence polarisation; fluorescence anisotropy; 90 nM labelled peptide (Atto-488 on CTD peptides, FAM on NCoR and FMR1 peptides) titrated with increasing concentrations of SPOC domain; 20 °C; 25 mM Tris-Cl pH 7.4, 25 mM NaCl, 1 mM DTT; three independent dilution series; conditions: both partners purified
T2 construct: SPOC domain of human SHARP (SMRT/HDAC1 associated repressor protein, also known as SPEN), residues 3496-3664; also called SPOC domain of SHARP; SPEN SPOC; not shown: His6, N-terminal, cleaved

[2] = target: T1, RBM15 SPOC R834A; assay: as above; conditions: both partners purified

Binder	Kd [1] [µM]	Kd [2] [µM]
{Atto‑488}-YSPT[pS]PSYSPTSPS (also called 1×S5P CTD peptide; CTD pS5; source: lyophilized peptide, labeled with Atto-488 NHS ester, purified by reverse-phase HPLC) [1×S5P CTD diheptapeptide]	23.8 ± 0.8	–
MTNEEPLPKKVRL[pS]ETDFK (peptide, UniProt Q15007 1-19, looked up, first 19 N-terminal amino acids of WTAP, with the LSETD motif; also called WTAP pS14) [WTAP peptide (first 19 N-terminal amino acids) phosphorylated at S14]	–	50.4 ± 1.1
{FAM}-REPAPLLSAQYETL[pS]DSDD (also: phosphoserine at S2436) [NCoR peptide phosphorylated at S2436]	1.75 ± 0.04	–
{FAM}-REPAPLLSAQYETLSDSDD [unphosphorylated NCoR peptide]	13.6 ± 1.3	–
